Source: patent publication US20200368361A1 (Regeneron, published 2020)

T1: full length monkey MSR1 on HEK293.mfMSR1 cells (Macaca fascicularis, UniProt A0A2K5UWE2 1-451)
T1 construct: whole, on cells
T1 sequence: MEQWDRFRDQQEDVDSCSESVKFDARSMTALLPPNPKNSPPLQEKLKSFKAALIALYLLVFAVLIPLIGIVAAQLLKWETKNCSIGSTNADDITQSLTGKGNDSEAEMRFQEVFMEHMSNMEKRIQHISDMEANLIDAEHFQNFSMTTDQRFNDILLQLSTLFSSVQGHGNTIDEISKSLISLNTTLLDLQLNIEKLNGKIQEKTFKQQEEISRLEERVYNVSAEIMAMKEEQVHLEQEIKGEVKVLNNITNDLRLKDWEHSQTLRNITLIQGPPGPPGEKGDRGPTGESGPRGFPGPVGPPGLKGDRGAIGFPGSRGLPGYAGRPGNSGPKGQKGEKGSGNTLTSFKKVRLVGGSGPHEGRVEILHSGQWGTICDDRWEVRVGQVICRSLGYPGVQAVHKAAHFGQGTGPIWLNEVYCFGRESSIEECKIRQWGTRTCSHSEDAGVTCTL

T2: full length human MSR1 with a C-terminal Myc tag on HEK293.Myc.hMSR1 cells (human, UniProt P21757 1-451)
T2 construct: whole, on cells
T2 sequence (looked up): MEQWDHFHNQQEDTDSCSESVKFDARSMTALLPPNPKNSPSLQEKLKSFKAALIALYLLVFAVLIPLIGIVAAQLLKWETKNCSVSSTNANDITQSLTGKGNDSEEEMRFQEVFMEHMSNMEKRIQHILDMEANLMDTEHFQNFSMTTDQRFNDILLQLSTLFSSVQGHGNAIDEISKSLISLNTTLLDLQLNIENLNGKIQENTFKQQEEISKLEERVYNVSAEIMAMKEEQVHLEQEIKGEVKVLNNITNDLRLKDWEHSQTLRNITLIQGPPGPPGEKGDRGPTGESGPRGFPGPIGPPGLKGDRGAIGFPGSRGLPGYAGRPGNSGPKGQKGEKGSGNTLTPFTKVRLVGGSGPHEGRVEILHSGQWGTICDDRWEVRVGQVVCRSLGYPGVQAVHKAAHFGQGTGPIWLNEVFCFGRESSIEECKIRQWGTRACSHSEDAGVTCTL

T3: mouse MSR1 on RAW264.7 cells (mouse, UniProt P30204 1-458)
T3 construct: whole, on cells
T3 sequence (looked up): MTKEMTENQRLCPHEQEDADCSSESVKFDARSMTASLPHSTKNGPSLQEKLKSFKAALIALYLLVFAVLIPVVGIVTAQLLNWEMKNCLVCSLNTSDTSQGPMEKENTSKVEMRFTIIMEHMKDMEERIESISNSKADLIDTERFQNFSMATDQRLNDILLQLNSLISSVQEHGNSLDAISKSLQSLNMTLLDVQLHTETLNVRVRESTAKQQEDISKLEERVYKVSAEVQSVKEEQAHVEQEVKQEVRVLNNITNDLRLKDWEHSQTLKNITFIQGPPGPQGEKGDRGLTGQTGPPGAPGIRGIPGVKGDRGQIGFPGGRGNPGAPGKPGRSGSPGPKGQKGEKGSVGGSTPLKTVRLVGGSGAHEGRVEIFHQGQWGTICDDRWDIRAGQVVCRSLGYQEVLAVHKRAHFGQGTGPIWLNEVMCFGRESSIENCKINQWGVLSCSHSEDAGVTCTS


Legend:
[1] = target: T1, full length monkey MSR1 on …; test: ECL cell binding, HEK293.mfMSR1
Description: (§1) All cells were washed once with 1×PBS with Ca²⁺/Mg²⁺ and counted with a Cellometer™ Auto T4 cell counter (Nexcelom Bioscience). Approximately 1.0×10⁴ cells were seeded separately onto 96-well carbon electrode plates [MULTI-ARRAY high bind plate, Meso Scale Diagnostics] and incubated for 1 hour at 37° C. Non-specific binding sites were then blocked by 2% BSA (w/v) in PBS with Ca²⁺/Mg²⁺ for 1 hour at room temperature. THP-1 cells were pre-incubated for 0.5 hours at room temperature in sample dilution buffer with: 1) 1 mg/mL Fc receptor block reagents to block Fc gamma receptors on THP-1 cell surface [whole molecule human IgG (Jackson Immunoresearch, Cat #009-000-003) for wells being tested with anti-MSR1-mFc antibodies or 2) whole molecule mIgG (Jackson Immunoresearch, Cat #015-000-003) for wells being tested with anti-MSR1-hFc antibodies. Antibody binding on HEK293.Myc.hMSR1, HEK293.mfMSR1 and HEK293 cells was tested without Fc receptor block reagents. […] Plates were then washed to remove unbound antibodies an AquaMax2000 plate washer with a cell washing head (MDS Analytical Technologies). […] Plates were washed and developed with Read Buffer (Meso Scale Diagnostics, Cat #R92TD-2) according to manufacturer's recommended procedure and luminescent signals were recorded with a SECTOR Imager 600 (Meso Scale Diagnostics). Luminescence intensity, measured in relative light units (RLU), was recorded to indicate the binding intensity of each antibody at the range of concentrations.

[2] = target: T2, full length human MSR1 with a …; test: ECL cell binding, HEK293.Myc.hMSR1
Description: as §1

[3] = target: T3, mouse MSR1 on RAW264.7 cells; test: flow cytometry, RAW264.7 cells, 10 ug/mL;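 further: antibodies bound to RAW264.7 cells for 30 min on ice after Fc block with mouse IgG, S/N is MFI relative to unstained cells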
Description: To block binding to Fc receptors, RAW264.7 cells were incubated for 30 minutes at 4° C. with 500 μg/mL mouse IgG (Jackson ImmunoResearch, Cat #015-000-003) diluted in staining buffer, while B16F10.9 cells remained in staining buffer. Following Fc receptor blocking, 10 μg/mL of anti-MSR1 antibodies or an isotype control antibody were added to the cells and were subsequently incubated for 30 minutes on ice. […] The signal to noise (S/N) was determined by calculating the ratio of the anti-MSR1 antibodies or the control antibodies MFI to the unstained sample MFI (Table 16).

| Binder | binding signal ratio to isotype control (11 nM) [1] | binding signal ratio to isotype control (11 nM) [2] | MFI [3] | S/N [3] |
| --- | --- | --- | --- | --- |
| H1H27766P2-N297Q (antibody, human IgG1, V domains shown, human IgG1 Fc with N297Q; also called H1H27766P-N297Q) VH: EVQLVESGGGLVQPGGSLRLSCAASGFTFSSFAMSWVRQAPGKELEWVSSISGRGGSTYYADSVRGRFTISRDNSKITLYLQMNSLRAEDTAVYYCAKDIVFRYTSSAYWYFDLWGRGTLVTVSS VL: not shown | 13 fold | 20 fold | 3810 | 1 |
| H1H27762P2-N297Q (antibody, human IgG1, V domains shown, human IgG1 Fc with N297Q; also called H1H27762P-N297Q) VH: QVQLVQSGAEVKKPGSSVKVSCKASGGTFSRYDISWVRQAPGQGLEWMGGIIPIFGTSNYAQKFQGRVTITTDESTSTVYMELSSLRSEDTAVYYCARGGRYGWFDPWGQGTLVTVSS VL: not shown | 25 fold | 33 fold | 3520 | 1 |
| H1H27734P-N297Q (antibody, human IgG1, V domains shown, human IgG1 Fc with N297Q) VH: EVQLVESRGGLVQPGGSLRLSCAASGFTFSSYAMSWVRQAPGKGLEWVSAISGSGGSTFYADSVKGRFTISRDNSKNTVYLQMNSLRAEDTAVYYCAKALVLRFLEWLGDYWGQGTLVTVSS VL: DIQMTQSPSTLSASVGDRVTITCRASQSISSWLAWFQQKPGKAPKLLIYKASSLESGVPSRFSGSGSGTEFTLTISSLQPDDFATYYCQQYKSYWTFGQGTKVEIKR | 28 fold | 40 fold | 4780 | 1 |
| H1H27759P2-N297Q (antibody, human IgG1, V domains shown, human IgG1 Fc with N297Q; also called H1H27759P-N297Q) VH: EVQLVESGGGFVQPGGSLRLSCAASGFTFSSYAMSWVRQAPGKGLEWVSAISGTGSNTYYADSVKGRFTISRDNSKNTLYLQMNSLRAEDTAVYYCAKDRVTTVTYYFDYWGQGTLVTVSS VL: not shown | 25 fold | 23 fold | 3290 | 1 |
| H1xH27759P2 (antibody, V domains shown, prefix H1xH not explained for the anti-MSR1 antibodies) VH: EVQLVESGGGFVQPGGSLRLSCAASGFTFSSYAMSWVRQAPGKGLEWVSAISGTGSNTYYADSVKGRFTISRDNSKNTLYLQMNSLRAEDTAVYYCAKDRVTTVTYYFDYWGQGTLVTVSS VL: not shown | 21 fold | 22 fold | – | – |
| H1H27729P-N297Q (antibody, human IgG1, V domains shown, human IgG1 Fc with N297Q) VH: QVQLVESGGGLVKPGGSLRLSCAASGFIFSDYYMSWIRQAPGKGLEWVSYISSSGTTIYGDSVKGRFTMSRDNAKNSLYLQMNSLRAEDTAVYYCARNYALFDYWGQGTLVTVSS VL: DIQMTQSPSSLSASVGDRVTITCQASQDISKYLNWYQQKPGKAPKLLIYYTSNLETGVPSRFSGSGSGTDFTFTISSLQPEDIATYYCHQSDYLPFTFGPGTKVDIKR | 6 fold | 17 fold | 3480 | 1 |
| H2aM21228N (antibody, mouse IgG2a, V domains shown, mouse IgG2a Fc) VH: VQLVESGGGLVQPGGSLRLSCAASGFTFSDHYMDWVRQAPGKGLEWVGRTRNKANSHTTEYAASVSGRFTISRDDSKNSLYLQMNSLKTEDTAVYYCTRAGIIGTLFDYWGQGTLVTVSS VL: not shown | 60 fold | 66 fold | – | – |
| H1H27731P-N297Q (antibody, V domains shown, human IgG1 Fc with N297Q) VH: QLQLQESGPGLVKPSETLSLTCTVSGGSISRISYYWGWIRQPPGKGLEWIGSIYDSGSTYYNPSLKSRVTISIDTSKNQFSLKLSSVTAADTAVYYCVRYSSSSAFAFDYWGQGTLVTVSS VL: DIQMTQSPSSVSASVGDRVTITCRASQGISSWLAWYQQKPGKAPKLLIYAASSLQSGVPSRFSGSGSGTDFTLTISSLQPEDFATYYCQQANSFPFTFGPGTKVDIKR | 43 fold | 48 fold | 3510 | 1 |
| H1H27747P-N297Q (antibody, human IgG1, V domains shown, human IgG1 Fc with N297Q) VH: QVQLVESGGAVVQPGRSLRLSCAASGFTFSYYGMHWVRQAPGKGLEWVAVISYDGSKKYYADSVKGRFTISRDNSKNTLYLQMNSLRAEDTAVYYCAKDLTVDFYYGMDVWGQGTTVTVSS VL: DIQMTQSPSSVSASVGDRVTITCRASQGISSWLAWYQQKPGKAPKLLIYATSSLQSGAPSRFSGSGSGTDFTLTISSLQPEDFATYFCQQANSFPYTFGQGTKLEIKR | 21 fold | 26 fold | 3630 | 1 |
| H1H27754P-N297Q (antibody, human IgG1, V domains shown, human IgG1 Fc with N297Q) VH: EVQLVESGGGLVQPGGSLRLSCAASGFTFRTYAMTWVRQAPGKGLDWVSAITGDGGNTYYADSVKGRFTISRDNSKNTLYLQMNSLRAEDTAIYYCAKDQRFSFALYYFDYWGQGTLVTVSS VL: DIQMTQSPSSVSASVGDRVTITCRASQGISSWLAWYQQKPGNAPKLLIYAAFSLQSGVPSRFSGSGSGTDFTLTISSLQPEDFATYYCQQANNFPWTFGQGTKVEIKR | 53 fold | 55 fold | 5410 | 1 |
| H1H27751P-N297Q (antibody, human IgG1, V domains shown, human IgG1 Fc with N297Q) VH: EVQLVESGGGLVQPGGSLRLSCAASGFTFSNYAMHWVRQAPGKGLEYVSAISSNGGSTYYADSVKGRITISRDNSKNTLYLQMGSLRAEDMAVYYCARGRPYYYYFGMDVWGQGTTVTVSS VL: not shown | 49 fold | 63 fold | 3820 | 1 |
| H1H27739P-N297Q (antibody, human IgG1, V domains shown, human IgG1 Fc with N297Q) VH: EVQLVESGGGLVQPGGSLRLSCTASGFTFSSYAMSWVRQAPGKGLEWVSAISGTGSSTYFTDSVKGRFAISRDNSKNTLYLQMNSLRAEDTAVYYCAKDGEWLSTVTLFDYWGQGTLVTVSS VL: EIVMTQSPATLSVSPGERATLSCRASQSVSSNLAWYQQKPGQAPRLLIYGASTRATGIPARFSGSGSGTDFTLTISSLQSEDFALYYCQQYFIWPPHPTFGPGTKVDIKR | 20 fold | 22 fold | 3270 | 1 |
| H2aM21229N (antibody, mouse IgG2a, V domains shown, mouse IgG2a Fc) VH: EVQLVESGGGLVKPGGSLRLSCAASGFTFSRYSMNWVRQAPGKGLEWVSSISSSSSYIYYGDTVKGRFTISRDNAKKSLYLQMNSLRAEDTAVYYCVRDRGQLVLYFDYWGQGTLVTVSS VL: DIQMTQSPASLSTSIRDRVTITCRASLSISSFLNWFQQRPGKAPKLLIYVASNLQSGVPSRFSDSGSGTDFTLTISSLQPEDFATYYCQQNYSTPPITFGQGTRLEIK | 27 fold | 78 fold | – | – |
| H1H27761P2-N297Q (antibody, human IgG1, V domains shown, human IgG1 Fc with N297Q; also called H1H27761P-N297Q) VH: EVQLVESGGDLVQPGGSLRLSCSASGFTFNIYAMSWVRQAPGKGLEWVSGISGSGGSTYYADSVKGRFTISRDNSKNTLYFQMNSLRVEDTAVYYCAKKISSSSYYYYAMDVWGQGTTVTVSS VL: not shown | 15 fold | 23 fold | 3840 | 1 |
| H1xH29282P2 (antibody, V domains shown, prefix H1xH not explained for the anti-MSR1 antibodies) VH: EVQLVESGGGLVQPGGSLRLSCAASGFTFSTYAMSWVRQAPGKGLEWVSTISGRSDITYFADSVKGRFTVSRDNSKTTLYLQMNSLRAEDTAVYYCATDDDLPLDYWGQGTLVTVSS VL: not shown | 1 fold | 9 fold | – | – |
